Test results as given in article PMC4164784, “4E-BPs require non-canonical 4E-binding motifs and a lateral surface of eIF4E to repress translation” (Nature Communications, 2014).
Entries after “also recorded” stand apart in the source; their conditions may differ.

T1: SHN-eIF4E (full length, WT) (Drosophila melanogaster, UniProt P48598-2 1-248)
T1 construct: eIF4E, Drosophila melanogaster; also called SHN-tagged eIF4E; SNH-tagged eIF4E; not shown: Strep-NusA-His (SHN), N-terminal, kept
T1 sequence (looked up): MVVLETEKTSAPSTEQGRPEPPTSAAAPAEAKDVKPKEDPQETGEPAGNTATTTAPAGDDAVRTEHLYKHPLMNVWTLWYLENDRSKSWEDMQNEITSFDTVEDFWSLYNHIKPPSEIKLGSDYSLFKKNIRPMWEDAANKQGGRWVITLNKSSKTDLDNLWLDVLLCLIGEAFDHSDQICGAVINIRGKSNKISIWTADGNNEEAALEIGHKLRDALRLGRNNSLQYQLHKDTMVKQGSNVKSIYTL

B1: GST-Thor (full length) (natural protein, Drosophila melanogaster, UniProt Q9XZ56 1-117, looked up)
chain: MSASPTARQAITQALPMITRKVVISDPIQMPEVYSSTPGGTLYSTTPGGTKLIYERAFMKNLRGSPLSQTPPSNVPSCLLRGTPRTPFRKCVPVPTELIKQTKSLKIEDQEQFQLDL
notes: Thor, Drosophila melanogaster; source: E. coli BL21 (DE3) STAR, coexpressed with SHN-eIF4E, complex purified on glutathione agarose
B2: Thor: Dm Thor full length (1–117), Q9XZ56, ortholog of 4E-BP1–3 (protein)
chain: MSASPTARQAITQALPMITRKVVISDPIQMPEVYSSTPGGTLYSTTPGGTKLIYERAFMKNLRGSPLSQTPPSNVPSCLLRGTPRTPFRKCVPVPTELIKQTKSLKIEDQEQFQLDL
modifications: left off: GFP, end not stated, kept
B3: 4E-T: Dm 4E-transporter (1–1010), Q8IH18; residues 1–58 in pull-down assays (protein)
chain: MDTSKISARYSKVDLLALRYEGKSRQRPQCSTRLELQTLGFWKINLNTAALTVSSAYSNQNKNRLSPEADNSSLICSNSSSISSRRAMRNRERANNYYQRFVPTDSLLISGEDKDKDALSHGQPYKLNIIDHRSISSSHLMPAFAKRRFVISKGSNSEESNEGINTCASKGKAASSPSRKGSELDTAETCLNFVQPDHDQCMSSSPTFSTSRQERRIGSGRLLPRSDNWDYKNEKTVEASIENEKETSPNGSGSTSSLNQHNQSQHRSRTFSGRLVERVPEVTDRRFQYDSKKSFDRQGINNRRISGKEPFSTQSRSKRGNSYLIHEEPEWFSAGPKSQLETIDLHGFEDLEKNEERSVTEDKNNQIQQLDKNLDAQASKDEASMRNSNDSLNFREVIPSDEKKHTDENVVTSIQNSTDLGHPNKNKPIQMQPSQNPESEFNFDAFLNMHPLDNSVLSNDETGKSDSKGTSRFSRWFRQKEAANNNEFPGFRESHAQEKRGIPSVKDLEAQMIKVDMRTDLINPIAGSLCQTVQMEKPIARDTEAFKKLLQQLGSQARQHHPCNDDCRTINLSNIANHVHLESKLHQKINDGHLQQPELSVNVPTMPTSSHVFLQKRLEIQHLIQRLHCGDVSHDFLEKELDNPSTPAATKDVIATVLNEYSHSKRNPVVTGDPNIFTQQSFLQPQSVHQHYSQELHSQNTANHTINQLISHGNSPTPLAFTPTSVLRKMTADKDTQSPSTYCQNPQYHVHQQNAKQVGTRENVLEPQLTATMAVQPRMILGGGNFAIGQNNQHLSPNMSQSRNQQVLKWTSGNMQMVHGKTFGRPILKGGLNSMPHSNSALPFTAHKIEMQPIHQPHLQQQQHRFKAVQSVESNLNTESVHQNITSPVGWHQLYMQHQQQHHHTRQQLSQRVIYGEMHRQSNPQMSPPVPGFSDSSDSGNVIKANSLTSPSYQRDERISSPTNQLAQWFSPELLAKASAGKLPLLNVNQALSLEEFERSIQHSSGVVHN
modifications: left off: GFP, end not stated, kept
notes: Dm 4E-transporter (1–1010), Q8IH18; residues 1–58 in pull-down assays

Tests used:
[1] = target: T1, SHN-eIF4E (full length, WT); test: pull-down; preassembled complexes of SHN-eIF4E (WT or II-AA) with GST-eIF4G, GST-CUP, GST-Thor or GST-4E-T (coexpressed, purified on glutathione agarose) recovered on Strep-Tactin beads; conditions: both partners purified
[2] = test system: endogenous eIF4E; test: Coimmunoprecipitation / m7GTP pull-down with endogenous eIF4E in S2 cell lysates; assay type: cell-based, Drosophila melanogaster; conditions: western blot
Experimental: (§1) The coimmunoprecipitations assays were performed as previously described. For the pull downs using m^7GTP beads, 25 μl of immobilized γ-aminophenyl-m^7GTP (C10-spacer—Jena Bioscience) beads was added to the cell lysates and the mixtures were rotated for 1 h at 4 °C. The beads were washed three times with NET buffer (50 mM Tris (pH 7.4), 150 mM NaCl, 1 mM EDTA and 0.1% Triton X-100). The bound proteins were eluted with 2 × SDS–polyacrylamide gel electrophoresis (SDS–PAGE) sample buffer and analyzed by western blotting (WB). All of the WB experiments were developed with the ECL western blotting detection system (GE Healthcare) as recommended by the manufacturer. The antibodies used in this study are listed in Supplementary Table 2.
Thor and 4E-T) or HA-eIF4G and endogenous eIF4E in S2 cell lysates. The proteins were immunoprecipitated using a polyclonal anti-eIF4E antibody (α-4E). The pre-immune (Pre-I) serum and an HA-tagged version of MBP served as negative controls. The inputs (1%) and immunoprecipitates (10%) were analyzed by western blotting using anti-HA and anti-eIF4E antibodies. (b,c) The interaction of HA-tagged full length 4E-BPs (CUP, Thor and 4E-T) and eIF4G with endogenous eIF4E was analyzed by coimmunoprecipitation using anti-HA antibodies (b) or by pull-down using m7GTP-Sepharose beads (c). HA-MBP served as a negative control. The inputs (10%) and immunoprecipitates (30%) were analyzed by western blotting using anti-HA and anti-eIF4E antibodies. (d) Western blot showing the interaction of HA-Thor (full-length either wild-type or mutants) with endogenous eIF4E in S2 cells. The proteins were immunoprecipitated using anti-HA antibodies and analyzed as described in (b,c). (e) Western blot showing the interaction of HA-4E-T (residues 1–511, wild-type or mutants) with endogenous eIF4E. The proteins were immunoprecipitated using anti-HA antibodies and analyzed as described in (b,c). The size markers (kDa) are shown to the right of each panel. Mutants are described in Supplementary Table 1.

[3] = test system: eIF4E II-AA (lateral surface mutant); test: Coimmunoprecipitation with HA-eIF4E II-AA in S2 cells; assay type: cell-based, Drosophila melanogaster; conditions: HA-eIF4E II-AA vs WT, western blot
Experimental: as §1

[4] = test system: eIF4E II-AA mutant (full length); test: GST/MBP pull-down of full-length eIF4E II-AA mutant, coexpressed in E. coli; assay type: binding, Drosophila melanogaster; conditions: recombinant CUP (311–440), Thor (full length), 4E-T (1–58) or eIF4G (578–650), WT or mutant, SDS–PAGE
Experimental: For the pull-down assays shown in Fig. 3 and Supplementary Fig. 6a, the full-length His6- or SHN-tagged eIF4E (WT or II-AA mutant) was coexpressed with GST or MBP-tagged protein fragments, including CUP (residues 311–440), Thor (full length), 4E-T (residues 1–58) or eIF4G (residues 578–650) in E. coli BL21 (DE3) STAR cells in autoinducing medium[44] overnight at 20 °C. The cells were resuspended in lysis buffer (20 mM Tris–HCl (pH 7.5), 100 mM NaCl, 1 mM DTT) supplemented with EDTA-free protease inhibitor (Roche) and lysed by sonication. The cleared lysates were incubated for 1 h with 20 μl of Protino Glutathione Agarose 4B beads (Macherey-Nagel) or amylose resin (New England Biolabs). The beads were washed three times with lysis buffer, and the bound proteins were eluted with lysis buffer containing 25 mM L-glutathione or 25 mM maltose for 15 min. The proteins were analyzed by 10–15% SDS–PAGE followed by Coomassie blue staining.

[5] = test system: firefly luciferase (F-Luc) reporter in S2 cells; test: Translation repression assay, F-Luc reporter in S2 cells; assay type: cell-based, Drosophila melanogaster
Experimental: S2 cells were transfected in 6-well plates using Effectene transfection reagent (Qiagen) according to the manufacturers protocol. The transfection mixtures contained: 0.1 μg of F-Luc reporter plasmid (F-Luc-V5), 0.3 μg of control RNA reporter, and increasing amounts of plasmids expressing HA-CUP (fragment 1–402; 0.05–0.2 μg) and HA-Thor (full length, 0.1–0.5 μg). The plasmids expressing the corresponding mutants or the HA peptide control were transfected at the highest concentration. In all the experiments, the cells were collected three days after transfection. The F-Luc activity was measured using the Dual-Luciferase reporter assay system (Promega). The northern blotting was performed as previously described. The F-Luc mRNA levels were determined by northern blotting and were normalized to those of the control RNA. The normalized F-Luc mRNA levels were then used to normalize the F-Luc activity, to obtain translation efficiencies.

[6] = test system: endogenous eIF4E and HA-tagged 4E-BPs in S2 cells; test: Immunofluorescence localization in S2 cells; assay type: cell-based, Drosophila melanogaster; conditions: for nuclear accumulation of endogenous eIF4E upon LMB (in words): S2 cells expressing 4E-BP or mutant; for nuclear accumulation of endogenous eIF4E upon LMB (in words) / nuclear accumulation of 4E-BP upon LMB (in words): LMB 100 nM, 12 h; for localization of endogenous eIF4E (in words): S2 cells overexpressing 4E-BP or mutant; for localization of endogenous eIF4E (in words) / localization of the 4E-BP (in words): −LMB; for nuclear accumulation of 4E-BP upon LMB (in words) / localization of the 4E-BP (in words): S2 cells; for localization of the 4E-BP (in words): steady-state
Experimental: S2 cells expressing HA-tagged versions of CUP, Thor and 4E-T or the indicated mutants were treated with Leptomycin B (100 nM; Sigma) or methanol as a control for 12 h. After the LMB treatment, the cells were allowed to adhere to poly-D-lysine–coated coverslips for 15 min and were fixed with 2% paraformaldehyde for 10 min. The cells were then permeabilized with 0.1% Triton X-100 in PBS (10 min) and stained with affinity-purified monoclonal anti-HA (Covance 1:1,000) and polyclonal anti-eIF4E (1:2,000) antibodies in PBS containing 1% BSA for 1 h. Alexa Fluor 594-labeled goat anti-rabbit and 488-labeled anti-mouse antibodies (Invitrogen) were used at dilutions of 1:1,000 and 1:2,000, respectively. The cells were mounted using Fluoromount-G (Southern Biotech). The images were acquired at room temperature using a confocal microscope (TCS SP2; Leica) that was fitted with a Plan-Apochromat × 100 NA 1.40 oil immersion objective and a series of three photomultipliers (Hamamatsu Photonics) controlled with the Leica confocal software (version 2.61). The images were prepared using Photoshop (Adobe). […]
Thor) independent experiments. […] Confocal fluorescent […]
micrographs of fixed S2 cells expressing HA-4E-T and GFP-Tral. The localization of HA-4E-T was determined by indirect immunofluorescence using an anti-HA antibody. The merged pictures show the HA signal in red and the GFP-Tral signal in green. Bar: 5 μm.

Molecule	binding result [1]	interaction with endogenous eIF4E (in words) [2]	association with eIF4E II-AA (in words) [3]	binding to eIF4E II-AA mutant (in words) [4]	repression of F-Luc reporter expression (in words) ([5]; coexpression (HA-CUP 1–402 0.05–0.2 μg, HA-Thor 0.1–0.5 μg plasmid; mutants at highest), 3 days, F-Luc activity normalized to mRNA, three independent experiments)	nuclear accumulation of endogenous eIF4E upon LMB (in words) [6]	localization of endogenous eIF4E (in words) [6]	nuclear accumulation of 4E-BP upon LMB (in words) [6]	localization of the 4E-BP (in words) [6]	effect on mRNA upon overexpression (in words) ([5]; overexpression, C.I. and E.I., unpublished results)
B1	binds									
B2		interacted with endogenous eIF4E	disrupted the association	pulled down comparable amounts of WT and mutant eIF4E	inhibited the expression of the F-Luc reporter in a dose-dependent manner	endogenous eIF4E accumulated in the nucleus	evenly distributed in the cytoplasm	partial nuclear accumulation	distributed evenly throughout the cytoplasm	
B3		interacted with endogenous eIF4E	disrupted the association	pulled down comparable amounts of WT and mutant eIF4E		endogenous eIF4E accumulated in the nucleus	detected in P-bodies	nuclear accumulation	localizes to P-bodies; also recorded: accumulated in cytoplasmic foci, which correspond to P-bodies	caused mRNA degradation when overexpressed
